Molecular target: F-actin (rabbit, UniProt P68135 1-377)
Experiment: co-sedimentation

B1: 83-kD nonmuscle caldesmon (natural protein)
chain: MLSRSGSQGRRCLATLSQIAYQRNDDDEEEAARERRRRARQERLRQKQEEESLGQVTDQVEAHVQNSAPDEESKPATANAQVEGDEEAALLERLARREERRQKRLQEALERQKEFDPTITDGSLSVPSRRMQNNSAENETAEGEEKGESRSGRYEMEETEVVITSYQKNSYQDAEDKKKEEKEEEEEEEKLKGGNLGENQIKDEKIKKDKEPKEEVKNFLDRKKGFTEVKAQNGEFMTHKLKQTENAFSPSRSGGRASGDKEAEGAPQVEAGKRLEELRRRRGETESEEFEKLKQKQQEAALELEELKKKREERRKVLEEEEQRRKQEEADRKAREEEEKRRLKEEIERRRAEAAEKRQKMPEDGLSEDKKPFKCFTPKGSSLKIEERAEFLNKSVQKSGVKSTHQAAVVSKIDSRLEQYTNAIEGTKASKPMKPAASDLPVPAEGVRNIKSMWEKGSVFSSPSASGTPNKETAGLKVGVSSRINEWLTKSPDGNKSPAPKPSDLRPGDVSGKRNLWEKQSVDKVTSPTKV
- stoichiometry N: ~6 actin monomers per 83-kD protein

From PMC2115152 (The Journal of Cell Biology, 1988)
